Measured values reported in FireProtDB (doi:10.1021/bi9928694).

Conditions: Homo sapiens, reversible: yes, whole UniProt chain shown
[1] = pH 2.7, Thermal, DSC, glycine-HCl 0.05 M
[2] = pH 4, 10 °C, GdnHCl, CD, glycine-HCl 40 mM

B1: Lysozyme C wild type, P61626 (protein)
chain: MKALIVLGLVLLSVTVQGKVFERCELARTLKRLGMDGYRGISLANWMCLAKWESGYNTRATNYNAGDRSTDYGIFQINSRYWCNDGKTPGAVNACHLSCSALLQDNIADAVACAKRVVRDPQGIRAWVAWRNRCQNRDVRQYVQGCGV
Tm [1]: 64.9 °C
heat capacity change of unfolding [1]: 1.58 kcal/mol/K
unfolding enthalpy (calorimetric) [1]: 114 kcal/mol
denaturant midpoint (higher = more stable) [2]: 3.96 M
unfolding free energy [2]: 14.3 kcal/mol
